Assay results from article doi:10.1101/2024.04.27.591446 (bioRxiv, 2024).

B1: 1301B7 Fab (Fab, V domains shown)
VH: EVQLVESGAEVKNPGSSVKVSCKASEGTFGSYPIIWVRQAPGQGLEWVGGIIPILGTVIYAQKFQGRVTITGDTYAGSAHMELSGLRSEDTAVFYCARGSYDYGDRLLNYTYYAMDVWGPGTTVTVSS
VL: QPGLTQPPSVSGAPGQRVTISCTGSRSNIGAVYAVHWYQHVPGAAPKLLIYENNNRPSGIPDRFSGSKSGTSASLVITGLQAEDEADYLCQSYDRSVGVVFGGGTRLTVL
B2: 1301B7 recombinant human monoclonal antibody (hmAb), IgG1 (antibody, V domains shown)
VH: B1 VH
VL: B1 VL

How the values were obtained:
[1] = molecular target: SARS-CoV-2 EG5.1 S ectodomain with 6P and furin mutations, trimer (SARS-CoV-2 Omicron EG.5.1, stabilised); experiment: cryo-EM structure
[2] = molecular target: SARS-CoV-2 Spike Wuhan-Hu-1 (SARS-CoV-2 Wuhan-Hu-1, UniProt P0DTC2); experiment: ELISA

Row | Binder | stoichiometry N [1] [Fab per Spike trimer] | binding result [2]
1 | B1 | 1 | 
2 | B2 |  | binds
